Data: IntAct's records for PubMed 24076653

B1: BAR/IMD domain-containing adapter protein 2 (Homo sapiens), Q9UQB8-4 (parent)
chain: MSLSRSEEMHRLTENVYKTIMEQFNPSLRNFIAMGKNYEKALAGVTYAAKGYFDALVKMGELASESQGSKELGDVLFQMAEVHRQIQNQLEEMLKSFHNELLTQLEQKVELDSRYLSAALKKYQTEQRSKGDALDKCQAELKKLRKKSQGSKNPQKYSDKELQYIDAISNKQGELENYVSDGYKTALTEERRRFCFLVEKQCAVAKNSAAYHSKGKELLAQKLPLWQQACADPSKIPERAVQLMQQVASNGATLPSALSASKSNLVISDPIPGAKPLPVPPELAPFVGRMSAQESTPIMNGVTGPDGEDYSPWADRKAAQPKSLSPPQSQSKLSDSYSNTLPVRKSVTPKNSYATTENKTLPRSSSMAAGLERNGRMRVKAIFSHAAGDNSTLLSFKEGDLITLLVPEARDGWHYGESEKTKMRGWFPFSYTRVLDSDGSDRLHMSLQQGKSSSTGNLLDKDDLAIPPPDYGAASRAFPAQTASGFKQRPYSVAVPAFSQGLDDYGARSMSSGSGTLVSTV

Variants of: B1
Conditions: with vasp_human VASP

| Variant | effect of a mutation on the interaction |
| --- | --- |
| W413G | disrupting interaction |
